Data reported in US20190177391A1, “ANGIOPOIETIN-LIKE PROTEIN 8 (ANGPTL8)” (BAYLOR RESEARCH INSTITUTE, priority 2016, published 2019).

Assays:
Notch1 = Notch1 expression in HL-1 atria muscle cells treated with ADM; assay type: cell-based, mouse; details: HL-1 cells; ADM 0.25, 0.5, 1.0 μM, 48 hrs
[1] = tested on: rat hearts with established adriamycin cardiomyopathy; assay: Echocardiography of heart structure and function in established adriamycin cardiomyopathy; assay type: in vivo; details: protein therapy; 5, 20, 40 μg/kg/day intramuscular for 14 days; ADM cardiomyopathy rats
Protocol: The protocol was planned to test the hypothesis that delivery of ANGPTL8 by UTMD could reverse established adriamycin (ADM) cardiomyopathy defined as a fractional shortening <30% by echocardiography after injection of ADM (Iliskovic, et al., 1997) at total dose of 15 mg/kg/ip, 2.5 mg/kg/ip 6 times over 2 weeks.
(§1) There were 120 rats divided into three control groups of 30 rats each and a treatment group of 30 rats: (1) normal control rats; (2) ADM injection only; (3) ADM plus UTMD with a DsRed reporter gene (pXL-BASII-CI-DsRed/pCI-hyPB); (4) ADM plus UTMD with ANGPTL8 (pXL-BASII-CI-ANGPTL8/pCI-hyPB). All rats were euthanized at 3 days, 7 days, 14 days, 21 days and 28 days after UTMD. The thymidine analog, 5-bromo-2-deoxyuridine (BrdU) (100 mg/kg) was injected intraperitoneally 6 hours prior to euthanizing.
(§2) 15 rats divided into (1) normal control rats; (2) ADM plus Saline inject rats; (3) ADM plus ANGPTL8 protein at dose of 5 μg/kg/day intramuscular inject for 14 days; (4) ADM plus ANGPTL8 protein at dose of 20 μg/kg/day intramuscular inject for 14 days; (5) ADM plus ANGPTL8 protein at dose of 40 μg/kg/day intramuscular inject for 14 days; All rats were euthanized at 14 days after starting ANGTPL8 protein inject. The thymidine analog, 5-bromo-2-deoxyuridine (BrdU) (100 mg/kg) was injected intraperitoneally 6 hours prior to euthanasia. […]

[2] = ELISA for fasting plasma human ANGPTL8; assay type: in vivo, rat; details: protein therapy; intramuscular daily for 14 days, 5, 20, 40 μg/kg/day; day 3, 7, 10 and 14
Protocol: as §1
15 rats divided into (1) normal control rats; (2) ADM plus Saline inject rats; (3) ADM plus ANGPTL8 protein at dose of 5 μg/kg/day intramuscular inject for 14 days; (4) ADM plus ANGPTL8 protein at dose of 20 μg/kg/day intramuscular inject for 14 days; (5) ADM plus ANGPTL8 protein at dose of 40 μg/kg/day intramuscular inject for 14 days; All rats were euthanized at 14 days after starting ANGTPL8 protein inject. The thymidine analog, 5-bromo-2-deoxyuridine (BrdU) (100 mg/kg) was injected intraperitoneally 6 hours prior to euthanasia. Human recombinant protein ANGTPL8 protein was purchased from Phoenix Pharmaceuticals (Cat #056-61, Burlingame, Calif., USA).
Fasting venous blood was collected in EDTA tubes from the tail vein, and plasma lipids were measured using standard enzymatic assays. Human ANGTPL8 was measured using ELISA (Phoenix Pharmaceuticals).

ISL-1 = ISL-1 positive cardiac progenitor cells in epicardium and sub-epicardium (staining, qRT-PCR); assay type: in vivo, rat; details: protein injection, dose dependent manner, after 14 days treatment
Protocol: as §1, §2
Total RNA was isolated from 100 mg of pancreas, liver and left quadratic skeletal muscle using the RNeasy mini kit (Qiagen). Real-time quantitative RT-PCR (qRT-PCR) analysis was performed on an ABI 7700 Sequence Detector (Applied Biosystems, Grand Island, N.Y., USA) using SYBR Green (RT2 SYBR Green qPCR Kit; Qiagen, Boston, Mass., USA). […]

Molecule | Notch1 expression (Notch1) | LV fractional shortening [1] | LV mass [1] | human ANGPTL8 in fasting plasma [2] | ISL-1 positive cells in epicardial layer (ISL-1)
COc1cccc2c1C(=O)c1c(O)c3c(c(O)c1C2=O)C[C@@](O)(C(=O)CO)C[C@@H]3O[C@H]1C[C@H](N)[C@H](O)[C@H](C)O1 [ADM, adriamycin] | significantly inhibited |  |  |  | 
ANGPTL8 protein: Human recombinant ANGPTL8 protein purchased from Phoenix Pharmaceuticals (Cat #056-61), injected intramuscularly (protein, UniProt Q6UXH0 22-198, looked up) Angiopoietin-like protein 8: APMGGPELAQHEELTLLFHGTLQLGQALNGVYRTTEGRLTKARNSLGLYGRTIELLGQEVSRGRDAAQELRASLLETQMEEDILQLQAEATAEVLGEVAQAQKVLRDSVQRLEVQLRSAWLGPAYREFEVLKAHADKQSHILWALTGHVQRQRREMVAQQHRLRQIQERLHTAALPA |  | some degree of restoration | some degree of restoration | detected | activated
